{"source": "paper doi:10.1101/2020.12.18.423415", "about": "(bioRxiv, 2020)", "binders": {"B1": {"name": "recombinant fragment of human surfactant protein D (rfhSP-D) (domain or fragment)", "chain": "PGLKGDKGIPGDKGAKGESGLPDVASLRQQVEALQGQVQHLQAAFSQYKKVELFPNGQSVGEKIFKTAGFVKPFTEAQLLCTQAGGQLASPRSAAENAALQQLVVAKNEAAFLSMTDSKTEGKFTYPTGESLVYSNWAPGEPNDDGGSEDCVEIFTNGKWNDRACGEKRLVVCEF"}}, "target": "receptor binding domain (RBD) of the SARS-CoV-2 S protein (SARS-CoV-2, UniProt P0DTC2)", "assay": "ELISA"}
{"binder": "B1", "values": [{"measurement": "percent decrease of RBD-hACE-2 interaction (rfhSP-D increased 8-fold)", "result": "~25", "unit": "%"}]}
